Experimental data: patent US10653749B2, “Targeting GIV-GEF-GI signaling for treating diverse diseases” (The Regents of the University of California, priority 2015, dated 2020)

System: L×2 human hepatic stellate cells
Test: L×2 myofibroblast (hepatic stellate cell) activation by TGFβ, qPCR and immunoblot
Assay type: cell-based
Protocol: For measurement of collagen and αSMA mRNA levels in L×2 HSCs we followed the protocols exactly as before (59). Briefly, total RNA was isolated using an RNeasy kit (QIAGEN) as per the manufacturer's protocol. First-strand cDNA was synthesized using SuperScript II reverse transcriptase (Invitrogen), followed by ribonuclease H treatment (Invitrogen) before performing quantitative realtime PCR. Reactions omitting reverse transcriptase were performed in each experiment as negative controls. Reactions were then run on a real-time PCR system (ABI StepOnePlus; Applied Biosystems). Gene expression was detected with SYBR green (Invitrogen), and relative gene expression was determined by normalizing to GAPDH using the ΔΔT method. The sequences of primers used in this work are identical to what were used previously (59).
For TAT-protein transduction, cells were incubated with 400-800 nM of the TAT-proteins for 30 min at 37° C. prior to three washes with PBS and addition of fresh growth media. For analysis of EGF signaling, subconfluent monolayers of HeLa cells were treated with TAT proteins for 30 min, washed with PBS, and subsequently stimulated with EGF (50 nM) at 4 h after TAT transduction. For scratch-wound assays, HeLa monolayers were treated with TAT proteins before and at 12 h after wounding. For cancer cell invasion assays, highly invasive MDA MB 231 breast cancer cells were plated in 6-well dishes, treated with TAT-peptides for 30 min and subsequently lifted and placed in transwell chamber in the presence of serum-free media. For L×2 myofibroblast activation assays, cells were first treated with TAT-proteins for 30 min, starved in serum-free media, and subsequently treated with 1.5 ng/ml TGF-β for 24 h. TAT-protein transduction was repeated every 8 h during the course of TGFβ stimulation (total 3 treatments). […] In each case, whole cell lysates prepared from cells in duplicate wells were analyzed for signaling pathways and TAT-protein uptake by immunoblotting.

B1: TAT-GIV-CT-FA: GEF-deficient F1685A mutant of the TAT-GIV-CT peptide, dominant-negative; SEQ ID NO: 3 (protein)
chain: MRGSHHHHHHGMASMTGGQQMGRDLYDDDDKDRWGSKLGYGRKKRRQRRRGGSTMSGYPYDVPDYAGSMGGSGHSGETLESRHHKIKTGSPGSEVVTLQQALEESNKLTSVQIKSSSQENLLDEVMKSLSVSSDFLGKDKPVSCGLARSVSGKTPGDFYDRRTTKPEFLRPGPRKTEDTYFISSAGKPTPGTQGKIKLVKESSLSRQSKDSNPYATLPRASSVISTAEGTTRRTSIHDFLTKDSRLPISVDSPPAAADSNTTAASNVDKVQESRNSKSRSREQQSS
reduction of HSC activation (expression of α-SMA) (TGFβ 24 h, TAT every 8 h, qPCR): ~30%
suppression of collagen production (TGFβ 24 h, TAT every 8 h, vs control and TAT-GIV-CT-WT, qPCR): ~70%
TGFβ-SMAD cascade (phosphorylation of SMAD2/3) (immunoblot): suppression
